The text below walks through data of patent US20050215503, “HIF oligonucleotide decoy molecules” (published 2005).

The target in the data set is HIF-1 (HIF-1alpha/HIF-1beta (ARNT) heterodimer) (Homo sapiens?, UniProt Q16665;P27540 Q16665:1-826,P27540:2-789). The data set can be described thus: competition; TransAM. The note with it: protein: extract; tags: none (endogenous, nuclear extract). How it is done: To assess the relative affinities of oligonucleotides for a HIF-1α containing complex, the HIF-1 TransAM assay (Active Motif, Catalog # 47096) was utilized. The assay was performed according to manufacturer's instructions. Briefly, a double-stranded oligonucletide containing the hypoxia response element (HRE) was immobilized on a 96-well plate. A nuclear extract containing HIF-1α complexes was incubated and allowed to bind to the immobilized oligonucleotide. The unbound material was washed away and the bound HIF-1α detected using an antibody that specificially recognizes HIF-1α. The anti-HIF-1α antibody was detected by a secondary antibody labeled with horseradish peroxidase (HRP), and the amount of HRP in each well was measured using a calorimetric substrate reaction and read using a microplate spectrophotometer.
The ability of candidate decoy molecules to compete for binding of HIF-1α to the HRE element-immobilized on the plate were measured and compared to reveal relative binding affinities. Candidate decoys were added in increasing molar ratios (relative to the amount of oligo immobilized on the plate) to compete for binding to the HIF-1α containing complexes. The amounts of decoys added to the assay included 0.625, 1.25, 2.5, 5, 10 and 20 fold molar excess. A well containing a competing decoy able to bind HIF-1α with high affinity would give a lower absorbance reading as compared to a decoy with low affinity for HIF-1α. All potential decoys were then compared and ranked in order to assess their relative binding affinities.
The screen was conducted using different decoy concentrations. For each UV absorbance reading, normalization was done by calculating the ratio of absorbance readings of sample vs. wild type control. The bigger ratio represents less competition of binding with HIF-1α when compared with wild-type control. The smaller (smaller than 1.0 or close to 1.0) ratios represent better binding or better competition.

Chain of HIF-1 (HIF-1alpha/HIF-1beta (ARNT) heterodimer) (Q16665 whole entry, chain 1 of 2): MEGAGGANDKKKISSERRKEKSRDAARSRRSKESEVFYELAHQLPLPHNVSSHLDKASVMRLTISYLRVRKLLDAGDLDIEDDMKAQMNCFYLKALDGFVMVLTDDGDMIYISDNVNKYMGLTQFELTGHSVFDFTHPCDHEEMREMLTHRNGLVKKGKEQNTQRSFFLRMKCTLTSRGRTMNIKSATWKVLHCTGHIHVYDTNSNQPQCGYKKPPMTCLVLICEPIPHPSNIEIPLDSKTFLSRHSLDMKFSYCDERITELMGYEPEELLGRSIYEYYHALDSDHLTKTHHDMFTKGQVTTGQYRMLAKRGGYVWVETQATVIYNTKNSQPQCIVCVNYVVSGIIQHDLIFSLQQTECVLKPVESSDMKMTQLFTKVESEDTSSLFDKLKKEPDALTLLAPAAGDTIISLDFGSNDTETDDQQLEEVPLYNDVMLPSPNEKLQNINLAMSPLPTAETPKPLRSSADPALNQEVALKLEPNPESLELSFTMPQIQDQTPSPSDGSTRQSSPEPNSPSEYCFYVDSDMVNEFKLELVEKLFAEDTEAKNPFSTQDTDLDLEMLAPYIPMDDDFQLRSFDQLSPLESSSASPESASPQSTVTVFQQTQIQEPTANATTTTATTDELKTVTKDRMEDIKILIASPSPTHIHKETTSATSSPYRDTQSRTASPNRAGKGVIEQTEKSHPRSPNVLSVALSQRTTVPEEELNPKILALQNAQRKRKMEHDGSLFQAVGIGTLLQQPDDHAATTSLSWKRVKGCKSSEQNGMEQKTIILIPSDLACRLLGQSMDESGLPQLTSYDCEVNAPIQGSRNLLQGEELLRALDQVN
Chain of HIF-1 (HIF-1alpha/HIF-1beta (ARNT) heterodimer) (P27540 2-789, chain 2 of 2): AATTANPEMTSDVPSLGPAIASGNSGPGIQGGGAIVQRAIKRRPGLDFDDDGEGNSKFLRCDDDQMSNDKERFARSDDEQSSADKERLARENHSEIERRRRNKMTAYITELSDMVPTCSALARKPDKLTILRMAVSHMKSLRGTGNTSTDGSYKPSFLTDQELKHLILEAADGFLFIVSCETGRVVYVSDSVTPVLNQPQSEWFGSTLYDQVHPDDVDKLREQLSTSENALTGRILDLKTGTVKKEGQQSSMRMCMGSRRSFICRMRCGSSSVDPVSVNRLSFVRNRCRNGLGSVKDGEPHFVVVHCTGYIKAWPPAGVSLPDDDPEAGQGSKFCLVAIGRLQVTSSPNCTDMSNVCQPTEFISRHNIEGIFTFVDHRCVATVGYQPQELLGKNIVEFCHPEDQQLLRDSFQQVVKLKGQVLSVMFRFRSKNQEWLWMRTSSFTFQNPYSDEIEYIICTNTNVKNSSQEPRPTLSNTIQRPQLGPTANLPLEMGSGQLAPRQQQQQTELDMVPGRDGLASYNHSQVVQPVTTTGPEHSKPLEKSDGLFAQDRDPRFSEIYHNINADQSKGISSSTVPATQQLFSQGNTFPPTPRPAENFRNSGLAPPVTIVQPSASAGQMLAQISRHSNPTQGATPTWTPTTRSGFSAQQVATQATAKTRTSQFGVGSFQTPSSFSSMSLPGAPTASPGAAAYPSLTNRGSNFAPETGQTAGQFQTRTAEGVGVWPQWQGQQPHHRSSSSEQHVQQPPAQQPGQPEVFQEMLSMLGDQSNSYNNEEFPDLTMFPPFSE

B1: decoy 955 (dsDNA)
DNA 1: CCAGCGTACGTTCCTCAGG
DNA 2: CCTGAGGAACGTACGCTGG
In turn, B1 came in with a binding signal of 2.4 ratio.

B2: decoy 961 (dsDNA)
DNA 1: CCAGCGGACGTGCCTCAGG
DNA 2: CCTGAGGCACGTCCGCTGG
B2 came in with a binding signal of 1.65 ratio.

B3: decoy 833/834 (dsDNA)
DNA 1: TCCAATGCGTGCAGTACT
DNA 2: AGTACTGCACGCATTGGA
Turning to B3, the binding signal came out at 3.05 ratio.

B4: decoy 951 (dsDNA)
DNA 1: CCAGCGTACGTCCCTCAGG
DNA 2: CCTGAGGGACGTACGCTGG
In the case of B4, the binding signal is 2.91 ratio.

B5: decoy 927 (dsDNA)
DNA 1: CCAGCGTTCGTGCCTCAGG
DNA 2: CCTGAGGCACGAACGCTGG
Consider B5, for which the binding signal was determined as 3.16 ratio.

B6: decoy 893 (dsDNA)
DNA 1: CACGAGCGTACGTGCCTCAGG
DNA 2: CCTGAGGCACGTACGCTCGTG
For the molecule B6, the binding signal turned out to be 0.94 ratio.

B7: decoy 945 (dsDNA)
DNA 1: CCAGCGTACGAGCCTCAGG
DNA 2: CCTGAGGCTCGTACGCTGG
As to B7, the binding signal is 3.14 ratio.

B8: decoy 837/838 (dsDNA)
DNA 1: AGGCAACGTGCAGCCG
DNA 2: CGGCTGCACGTTGCCT
B8 yielded a binding signal of 3.74 ratio.

B9: decoy 965 (dsDNA)
DNA 1: CCAGCTTACGTGCCTCAGG
DNA 2: CCTGAGGCACGTAAGCTGG
Regarding B9, the binding signal is 1.61 ratio.

B10: decoy 877/878 (dsDNA)
DNA 1: ACCGTACGTGCTGCTA
DNA 2: TAGCAGCACGTACGGT
In the case of B10, the binding signal stood at 2.23 ratio.

B11: decoy 815/816 (dsDNA)
DNA 1: GTGAGACGTGCGGCTTCCGTTTG
DNA 2: CAAACGGAAGCCGCACGTCTCAC
In turn, B11 registered a binding signal of 4.43 ratio.

B12: decoy 807/808 (dsDNA)
DNA 1: TCTGTACGTGACCACACTCACCTC
DNA 2: GAGGTGAGTGTGGTCACGTACAGA
The molecule B12 yielded a binding signal of 2.76 ratio.

B13: decoy 959 (dsDNA)
DNA 1: CCAGCGAACGTGCCTCAGG
DNA 2: CCTGAGGCACGTTCGCTGG
For the molecule B13, the binding signal was 2.07 ratio.

B14: decoy 847/848 (dsDNA)
DNA 1: GGAACAACGTGGAATTAG
DNA 2: CTAATTCCACGTTGTTCC
In turn, B14 registered a binding signal of 3.02 ratio.

B15: decoy 939 (dsDNA)
DNA 1: CCAGCGTACATGCCTCAGG
DNA 2: CCTGAGGCATGTACGCTGG
The molecule B15 had a binding signal of 2.93 ratio.

B16: decoy 949 (dsDNA)
DNA 1: CCAGCGTACGGGCCTCAGG
DNA 2: CCTGAGGCCCGTACGCTGG
B16: the binding signal came out at 2.73 ratio.

B17: decoy 995 (dsDNA)
DNA 1: CCAGCGTACGTGCCGCAGG
DNA 2: CCTGCGGCACGTACGCTGG
Turning to B17, the binding signal worked out at 0.92 ratio.

B18: decoy 975 (dsDNA)
DNA 1: CCACCGTACGTGCCTCAGG
DNA 2: CCTGAGGCACGTACGGTGG
Consider B18, for which the binding signal was 1.63 ratio.

B19: decoy 899 (dsDNA)
DNA 1: CGAGCGTACGTGCCTCAGG
DNA 2: CCTGAGGCACGTACGCTCG
Turning to B19, the binding signal turned out to be 1.34 ratio.

B20: decoy 835/836 (dsDNA)
DNA 1: GGCCAGACGTGCCACCGG
DNA 2: CCGGTGGCACGTCTGGCC
Regarding B20, the binding signal turned out to be 2.91 ratio.

B21: decoy 813/814 (dsDNA)
DNA 1: GCCCTACGTGCTGTCTCACACAGC
DNA 2: GCTGTGTGAGACAGCACGTAGGGC
Molecule B21 returned a binding signal of 4.6 ratio.

B22: decoy 831/832 (dsDNA)
DNA 1: TCCAATACGTGCAGTACT
DNA 2: AGTACTGCACGTATTGGA
Turning to B22, the binding signal came to 3.36 ratio.

B23: decoy 947 (dsDNA)
DNA 1: CCAGCGTACGCGCCTCAGG
DNA 2: CCTGAGGCGCGTACGCTGG
As for B23, the binding signal stood at 2.94 ratio.

B24: decoy 953 (dsDNA)
DNA 1: CCAGCGTACGTACCTCAGG
DNA 2: CCTGAGGTACGTACGCTGG
Consider B24, for which the binding signal is 2.67 ratio.

B25: decoy 987 (dsDNA)
DNA 1: CCAGCGTACGTGCGTCAGG
DNA 2: CCTGACGCACGTACGCTGG
B25 came in with a binding signal of 1.16 ratio.

B26: decoy 805/806 (dsDNA)
DNA 1: CCCCCTCGGACGTGACTCGGACCAC
DNA 2: GTGGTCCGAGTCACGTCCGAGGGGG
The molecule B26 registered a binding signal of 1.13 ratio.

B27: decoy 931 (dsDNA)
DNA 1: CCAGCGTCCGTGCCTCAGG
DNA 2: CCTGAGGCACGGACGCTGG
With B27, the binding signal amounted to 3.44 ratio.

B28: decoy 829/830 (dsDNA)
DNA 1: AGGAGACGTGCTGCCT
DNA 2: AGGCAGCACGTCTCCT
In turn, B28 displayed a binding signal of 5.12 ratio.

B29: decoy 911 (dsDNA)
DNA 1: CACAGCGTACGTGCTGTCTCA
DNA 2: TGAGACAGCACGTACGCTGTG
In turn, B29 registered a binding signal of 1.16 ratio.

B30: decoy 943 (dsDNA)
DNA 1: CCAGCGTACTTGCCTCAGG
DNA 2: CCTGAGGCAAGTACGCTGG
Molecule B30 returned a binding signal of 2.83 ratio.

B31: decoy 873/874 (dsDNA)
DNA 1: TCCGTACGTGCTGCGT
DNA 2: ACGCAGCACGTACGGA
The molecule B31 yielded a binding signal of 2.33 ratio.

B32: decoy 905 (dsDNA)
DNA 1: GATCGCCCTACGTGCTGTCTCAGATC
DNA 2: GATCTGAGACAGCACGTAGGGCGATC
B32 yielded a binding signal of 1.54 ratio.

B33: decoy 867/868 (dsDNA)
DNA 1: TCCGTACGTGCTGCAC
DNA 2: GTGCAGCACGTACGGA
B33 came in with a binding signal of 2.63 ratio.

B34: decoy 855/856 (dsDNA)
DNA 1: GTGTGTACGTGCAGGAAA
DNA 2: TTTCCTGCACGTACACAC
As for B34, the binding signal amounted to 1.07 ratio.

B35: decoy 871/872 (dsDNA)
DNA 1: ACCGTACGTGCTGCCA
DNA 2: TGGCAGCACGTACGGT
B35: the binding signal came to 2.21 ratio.

B36: decoy 929 (dsDNA)
DNA 1: CCAGCGTGCGTGCCTCAGG
DNA 2: CCTGAGGCACGCACGCTGG
Take B36: the binding signal came out at 2.35 ratio.

B37: decoy 821/822 (dsDNA)
DNA 1: CGCGAGCGTACGTGCCTCAGG
DNA 2: CCTGAGGCACGTACGCTCGCG
B37 had a binding signal of 1.33 ratio.

B38: decoy 967 (dsDNA)
DNA 1: CCAGCATACGTGCCTCAGG
DNA 2: CCTGAGGCACGTATGCTGG
As to B38, the binding signal was determined as 1.53 ratio.

B39: decoy 989 (dsDNA)
DNA 1: CCAGCGTACGTGCTTCAGG
DNA 2: CCTGAAGCACGTACGCTGG
Molecule B39 registered a binding signal of 1.21 ratio.

B40: decoy 993 (dsDNA)
DNA 1: CCAGCGTACGTGCCACAGG
DNA 2: CCTGTGGCACGTACGCTGG
The molecule B40 gave a binding signal of 0.93 ratio.

B41: decoy 801/802 (dsDNA)
DNA 1: GCCCTACGTGCTGTCTCA
DNA 2: TGAGACAGCACGTAGGGC
B41 showed a binding signal of 4 ratio.

B42: decoy 957 (dsDNA)
DNA 1: CCAGCGCACGTGCCTCAGG
DNA 2: CCTGAGGCACGTGCGCTGG
B42 displayed a binding signal of 1.41 ratio.

B43: decoy 941 (dsDNA)
DNA 1: CCAGCGTACCTGCCTCAGG
DNA 2: CCTGAGGCAGGTACGCTGG
Take B43: the binding signal was 3.45 ratio.

B44: decoy 977 (dsDNA)
DNA 1: CCAACGTACGTGCCTCAGG
DNA 2: CCTGAGGCACGTACGTTGG
B44 displayed a binding signal of 1.43 ratio.

B45: decoy 859/860 (dsDNA)
DNA 1: ACCGTACGTGCTGATC
DNA 2: GATCAGCACGTACGGT
For B45, the binding signal was found to be 2.37 ratio.

B46: decoy 979 (dsDNA)
DNA 1: CCATCGTACGTGCCTCAGG
DNA 2: CCTGAGGCACGTACGATGG
For the molecule B46, the binding signal worked out at 1.41 ratio.

B47: decoy 963 (dsDNA)
DNA 1: CCAGCCTACGTGCCTCAGG
DNA 2: CCTGAGGCACGTAGGCTGG
B47 yielded a binding signal of 1.17 ratio.
